Drawing on paper PMC5993831 (2018), this text covers Kd for one molecule.

By Kd is commonly meant the equilibrium constant for the complex coming apart.

In the assay the target is PD-L1 (Mus musculus, UniProt Q9EP73).
Sequence of PD-L1 (Q9EP73 19-239): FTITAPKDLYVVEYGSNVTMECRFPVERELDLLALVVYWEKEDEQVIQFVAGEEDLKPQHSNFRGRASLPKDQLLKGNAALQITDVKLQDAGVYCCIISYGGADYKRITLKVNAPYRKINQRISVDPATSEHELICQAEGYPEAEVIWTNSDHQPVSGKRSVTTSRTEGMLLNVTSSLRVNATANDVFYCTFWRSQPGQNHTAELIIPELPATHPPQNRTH

B1: PD-L1 trap (trimeric PD-1 ECD fused to CMP1 trimerization domain) 21-150 (protein)
chain: SGWLLEVPNGPWRSLTFYPAWLTVSEGANATFTCSLSNWSEDLMLNWNRLSPSNQTEKQAAFCNGLSQPVQDARFQIIQLPNRHDFHMNILDTRRNDSGIYLCGAISLHPKAKIEESPGAELVVTERILE
modifications: trimeric fusion with mouse CMP1 residues 458-500 via hinge linker, His6 tag
The molecule B1 showed a Kd of 0.219 nM.
